The text below walks through data of patent US20170121416A1 (AbbVie / Abbott, published 2017).

For orientation: Kd means the equilibrium constant for the complex coming apart.

The target of test [1] is T1, human CD324 on cells (MCF7, BR22, NTX tumor cells, 293-hCD324) (human, UniProt P12830 155-882).
T1 sequence: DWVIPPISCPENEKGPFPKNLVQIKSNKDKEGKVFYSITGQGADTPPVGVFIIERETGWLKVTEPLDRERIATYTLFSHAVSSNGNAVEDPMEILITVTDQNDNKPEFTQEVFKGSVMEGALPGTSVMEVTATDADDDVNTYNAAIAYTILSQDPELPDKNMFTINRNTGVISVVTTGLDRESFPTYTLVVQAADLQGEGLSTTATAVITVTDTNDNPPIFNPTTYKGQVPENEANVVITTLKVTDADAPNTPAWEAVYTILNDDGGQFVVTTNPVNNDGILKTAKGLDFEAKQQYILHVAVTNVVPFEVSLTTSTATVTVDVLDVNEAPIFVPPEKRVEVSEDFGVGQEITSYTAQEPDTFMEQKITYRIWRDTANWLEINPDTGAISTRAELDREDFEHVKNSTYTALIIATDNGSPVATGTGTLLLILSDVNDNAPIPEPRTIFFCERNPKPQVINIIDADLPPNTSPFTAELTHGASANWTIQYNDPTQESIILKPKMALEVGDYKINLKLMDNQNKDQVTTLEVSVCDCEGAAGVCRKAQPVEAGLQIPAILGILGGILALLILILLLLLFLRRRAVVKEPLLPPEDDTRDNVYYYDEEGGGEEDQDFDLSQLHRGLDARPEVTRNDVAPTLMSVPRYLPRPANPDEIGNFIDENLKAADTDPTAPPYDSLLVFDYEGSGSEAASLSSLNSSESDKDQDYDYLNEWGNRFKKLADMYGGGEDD
The test can be described thus: cell-based or functional assay.

The target in test [2] is T1, human CD324 on cells (MCF7, BR22, NTX …). The experiment in a line: cell-based or functional assay. This is another data set of the same source.
The target in test [3] is T2, Nectin-4 on cells (MCF-7, SKBR3) (UniProt Q96NY8 32-510, limits assumed).
T2 sequence (looked up): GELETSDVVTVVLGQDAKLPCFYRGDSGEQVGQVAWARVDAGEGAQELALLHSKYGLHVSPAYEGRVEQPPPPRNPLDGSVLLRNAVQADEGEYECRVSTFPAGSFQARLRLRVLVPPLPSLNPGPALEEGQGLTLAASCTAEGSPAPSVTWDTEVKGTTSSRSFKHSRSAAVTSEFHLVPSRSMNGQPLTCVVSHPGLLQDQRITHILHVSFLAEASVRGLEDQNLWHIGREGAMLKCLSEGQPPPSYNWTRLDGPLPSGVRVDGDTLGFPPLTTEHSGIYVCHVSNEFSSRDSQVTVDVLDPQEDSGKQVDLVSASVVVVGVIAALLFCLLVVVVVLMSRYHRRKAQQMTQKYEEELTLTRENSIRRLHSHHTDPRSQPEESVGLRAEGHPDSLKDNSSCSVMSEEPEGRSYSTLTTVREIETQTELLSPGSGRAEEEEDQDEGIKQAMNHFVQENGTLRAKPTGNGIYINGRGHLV
The experiment in a line: cell-based or functional assay.

For test [4], the target named is T1, human CD324 on cells (MCF7, BR22, NTX …). The experiment in a line: cell-based or functional assay. The source holds these as a separate data set.
Test [5] concerns the target T3, human CD324-His recombinant protein (Sino Biological, Inc.) (human, UniProt P12830 155-709).
T3 construct: bought soluble protein; The antigen of the Biacore experiment is only called human CD324 antigen; also called hCD324-His; human CD324 antigen; not shown: His tag
T3 sequence: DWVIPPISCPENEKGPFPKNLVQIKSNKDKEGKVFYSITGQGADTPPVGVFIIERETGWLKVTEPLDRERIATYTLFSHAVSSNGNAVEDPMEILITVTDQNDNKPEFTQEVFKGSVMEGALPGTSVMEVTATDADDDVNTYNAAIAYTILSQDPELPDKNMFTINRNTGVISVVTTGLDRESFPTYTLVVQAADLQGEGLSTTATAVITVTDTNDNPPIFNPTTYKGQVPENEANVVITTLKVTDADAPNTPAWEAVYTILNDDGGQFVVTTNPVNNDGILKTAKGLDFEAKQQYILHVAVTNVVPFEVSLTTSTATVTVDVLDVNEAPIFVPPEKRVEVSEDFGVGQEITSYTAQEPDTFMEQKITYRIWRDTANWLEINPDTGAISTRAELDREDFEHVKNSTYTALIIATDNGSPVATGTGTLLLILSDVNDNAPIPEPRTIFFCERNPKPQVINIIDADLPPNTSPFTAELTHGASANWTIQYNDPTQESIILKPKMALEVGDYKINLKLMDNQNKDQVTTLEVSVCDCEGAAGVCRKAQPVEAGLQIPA
The experiment in a line: SPR (Biacore), similar experiments as for murine SC10.17; humanized antibody. (In general: SPR reads the build-up and loss of mass on a sensor chip optically.)

Test [6] addresses T4, Nectin-4 protein (R&D Systems) (UniProt Q96NY8 32-349).
T4 construct: bought; coated on the plate of the bridging ELISA
T4 sequence (looked up): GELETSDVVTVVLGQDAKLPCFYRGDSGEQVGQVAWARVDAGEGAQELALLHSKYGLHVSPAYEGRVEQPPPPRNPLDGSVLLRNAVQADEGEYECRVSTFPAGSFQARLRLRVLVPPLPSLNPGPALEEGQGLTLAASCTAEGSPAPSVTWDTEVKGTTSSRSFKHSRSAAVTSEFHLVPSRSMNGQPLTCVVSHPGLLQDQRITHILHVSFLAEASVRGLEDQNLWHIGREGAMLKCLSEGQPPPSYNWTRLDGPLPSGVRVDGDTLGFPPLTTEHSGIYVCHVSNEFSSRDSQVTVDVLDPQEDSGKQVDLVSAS
The test can be described thus: bridging ELISA: Nectin-4 coated, detection with biotinylated CD324 W2A and streptavidin-HRP. In general terms: ELISA stands for enzyme-linked immunosorbent assay.

B1: hSC10.17 (antibody, V domains shown)
VH: EVQLVESGGGLVQPGGSLRLSCAASGFTFSSYGMHWVRQAPGKGLEWVAYITTRSSTIYYADSVKGRFTISRDNAKNSLYLQMNSLRAEDTAVYYCTREPLTGYYAMDYWGQGTSVTVSS
VL: DVVMTQSPLSLPVTLGQPASISCRSSQSIVHSDGNTYLEWYQQRPGQSPRRLIYKVSNRFSGVPDRFSGSGSGTDFTLKISRVEAEDVGVYYCFQGSHAPWTFGGGTKVEIK
notes: humanized (CDR-grafted) SC10.17; also called humanized SC10.17 mAb; hSC10.17 IgG
For the molecule B1, the “EC50 of killing of MCF7 cells, anti-human Fab-saporin assay” value in test [1] worked out at 4.4 pM. In addition, in test [2], the “IC50 on 293-hCD324 (pM), in vitro killing with anti-human IgG Fab-saporin” value was found to be 0.27 pM and the “IC50 on MCF-7 (pM), in vitro killing with anti-human IgG Fab-saporin” value was 3.1 pM. The “IC50 on SKBR3 (pM), in vitro killing with anti-human IgG Fab-saporin” value in test [3] was > 1000 pM. Moreover, in test [4], the “EC50 (MCF7, Fab-saporin killing)” value is 4.44 pM. The dissociation constant (Kd) in test [5] worked out at 3.8 nM. Also, in test [6], the binding result was “no binding”.
